B1: Mothers against decapentaplegic homolog 4 (Homo sapiens), Q13485 (parent)
chain: MDNMSITNTPTSNDACLSIVHSLMCHRQGGESETFAKRAIESLVKKLKEKKDELDSLITAITTNGAHPSKCVTIQRTLDGRLQVAGRKGFPHVIYARLWRWPDLHKNELKHVKYCQYAFDLKCDSVCVNPYHYERVVSPGIDLSGLTLQSNAPSSMMVKDEYVHDFEGQPSLSTEGHSIQTIQHPPSNRASTETYSTPALLAPSESNATSTANFPNIPVASTSQPASILGGSHSEGLLQIASGPQPGQQQNGFTGQPATYHHNSTTTWTGSRTAPYTPNLPHHQNGHLQHHPPMPPHPGHYWPVHNELAFQPPISNHPAPEYWCSIAYFEMDVQVGETFKVPSSCPIVTVDGYVDPSGGDRFCLGQLSNVHRTEAIERARLHIGKGVQLECKGEGDVWVRCLSDHAVFVQSYYLDREAGRAPGDAVHKIYPSAYIKVFDLRQCHRQMQQQAATAQAAAAAQAAAVAGNIPGPGSVGGIAPAISLSAAAGIGVDDLRRLCILRMSFVKGWGPDYPRQSIKETPCWIEIHLHRALQLLDEVLHTMPIADPQPLD

Variants of: B1
Settings: with p85a_human PIK3R1, P27986

Row | Variant | effect of a mutation on the interaction
1 | D351H | with no effect

Variants of: B1
Settings: with p85b_human PIK3R2, O00459

Row | Variant | effect of a mutation on the interaction
2 | D351H | with no effect

Variants of: B1
Settings: with dpod1_human POLD1, P28340

Row | Variant | effect of a mutation on the interaction
3 | D351H | with no effect

Variants of: B1
Settings: with dpoe1_human POLE

Row | Variant | effect of a mutation on the interaction
4 | D351H | with no effect

Variants of: B1
Settings: with lipa1_human PPFIA1, Q13136

Row | Variant | effect of a mutation on the interaction
5 | D351H | with no effect

Variants of: B1
Settings: with 2aaa_human PPP2R1A

Row | Variant | effect of a mutation on the interaction
6 | D351H | with no effect

Variants of: B1
Settings: with prdm1_human PRDM1, O75626

Row | Variant | effect of a mutation on the interaction
7 | D351H | with no effect

Variants of: B1
Settings: with aapk2_human PRKAA2, P54646

Row | Variant | effect of a mutation on the interaction
8 | D351H | with no effect

Variants of: B1
Settings: with prss8_human PRSS8, Q16651

Row | Variant | effect of a mutation on the interaction
9 | D351H | with no effect

Variants of: B1
Settings: with ptk6_human PTK6, Q13882

Row | Variant | effect of a mutation on the interaction
10 | D351H | with no effect

Variants of: B1
Settings: with tf65_human RELA

Row | Variant | effect of a mutation on the interaction
11 | D351H | with no effect

Variants of: B1
Settings: with rnf43_human RNF43, Q68DV7

Row | Variant | effect of a mutation on the interaction
12 | D351H | with no effect

Variants of: B1
Settings: with ros1_human ROS1, P08922

Row | Variant | effect of a mutation on the interaction
13 | D351H | with no effect

Variants of: B1
Settings: with rl5_human RPL5, P46777

Row | Variant | effect of a mutation on the interaction
14 | D351H | with no effect

Variants of: B1
Settings: with runx1_human RUNX1, Q01196

Row | Variant | effect of a mutation on the interaction
15 | D351H | with no effect

Variants of: B1
Settings: with ruvb1_human RUVBL1, Q9Y265

Row | Variant | effect of a mutation on the interaction
16 | D351H | with no effect

Variants of: B1
Settings: with sdha_human SDHA

Row | Variant | effect of a mutation on the interaction
17 | D351H | with no effect

Variants of: B1
Settings: with sf3b1_human SF3B1, O75533

Row | Variant | effect of a mutation on the interaction
18 | D351H | with no effect

Variants of: B1
Settings: with skp2_human SKP2, Q13309

Row | Variant | effect of a mutation on the interaction
19 | D351H | with no effect

Variants of: B1
Settings: with smad1_human SMAD1, Q15797

Row | Variant | effect of a mutation on the interaction
20 | D351H | with no effect

Variants of: B1
Settings: with smad2_human SMAD2, Q15796

Row | Variant | effect of a mutation on the interaction
21 | D351H | with no effect

Variants of: B1
Settings: with smad3_human SMAD3, P84022

Row | Variant | effect of a mutation on the interaction
22 | D351H | with no effect

Variants of: B1
Settings: with smca4_human SMARCA4, P51532

Row | Variant | effect of a mutation on the interaction
23 | D351H | with no effect

Variants of: B1
Settings: with snf5_human SMARCB1, Q12824

Row | Variant | effect of a mutation on the interaction
24 | D351H | with no effect

Variants of: B1
Settings: with smo_human SMO

Row | Variant | effect of a mutation on the interaction
25 | D351H | with no effect

Variants of: B1
Settings: with sox10_human SOX10, P56693

Row | Variant | effect of a mutation on the interaction
26 | D351H | with no effect

Variants of: B1
Settings: with sox2_human SOX2, P48431

Row | Variant | effect of a mutation on the interaction
27 | D351H | with no effect

Variants of: B1
Settings: with sox3_human SOX3, P41225

Row | Variant | effect of a mutation on the interaction
28 | D351H | with no effect

Variants of: B1
Settings: with sox4_human SOX4, Q06945

Row | Variant | effect of a mutation on the interaction
29 | D351H | with no effect

Variants of: B1
Settings: with sox9_human SOX9, P48436

Row | Variant | effect of a mutation on the interaction
30 | D351H | with no effect

Variants of: B1
Settings: with spop_human SPOP

Row | Variant | effect of a mutation on the interaction
31 | D351H | with no effect

Variants of: B1
Settings: with src_human SRC

Row | Variant | effect of a mutation on the interaction
32 | D351H | with no effect

Variants of: B1
Settings: with stat3_human STAT3, P40763

Row | Variant | effect of a mutation on the interaction
33 | D351H | with no effect

Variants of: B1
Settings: with stk38_human STK38, Q15208

Row | Variant | effect of a mutation on the interaction
34 | D351H | with no effect

Variants of: B1
Settings: with ksyk_human SYK

Row | Variant | effect of a mutation on the interaction
35 | D351H | with no effect

Variants of: B1
Settings: with eloc_human ELOC

Row | Variant | effect of a mutation on the interaction
36 | D351H | with no effect

Variants of: B1
Settings: with tfe2_human TCF3, P15923

Row | Variant | effect of a mutation on the interaction
37 | D351H | with no effect

Variants of: B1
Settings: with tead1_human TEAD1, P28347

Row | Variant | effect of a mutation on the interaction
38 | D351H | with no effect

Variants of: B1
Settings: with tead2_human TEAD2, Q15562

Row | Variant | effect of a mutation on the interaction
39 | D351H | with no effect

Variants of: B1
Settings: with tead3_human TEAD3, Q99594

Row | Variant | effect of a mutation on the interaction
40 | D351H | with no effect

Variants of: B1
Settings: with tert_human TERT

Row | Variant | effect of a mutation on the interaction
41 | D351H | with no effect

Variants of: B1
Settings: with tgfr2_human TGFBR2, P37173

Row | Variant | effect of a mutation on the interaction
42 | D351H | with no effect

Variants of: B1
Settings: with tnr14_human TNFRSF14, Q92956

Row | Variant | effect of a mutation on the interaction
43 | D351H | with no effect

Variants of: B1
Settings: with tpx2_human TPX2, Q9ULW0

Row | Variant | effect of a mutation on the interaction
44 | D351H | with no effect

Variants of: B1
Settings: with tsc2_human TSC2, P49815

Row | Variant | effect of a mutation on the interaction
45 | D351H | with no effect

Variants of: B1
Settings: with tshr_human TSHR

Row | Variant | effect of a mutation on the interaction
46 | D351H | with no effect

Variants of: B1
Settings: with vegfa_human VEGFA

Row | Variant | effect of a mutation on the interaction
47 | D351H | with no effect

Variants of: B1
Settings: with vhl_human VHL

Row | Variant | effect of a mutation on the interaction
48 | D351H | with no effect

Variants of: B1
Settings: with wt1_human WT1, P19544

Row | Variant | effect of a mutation on the interaction
49 | D351H | with no effect

Variants of: B1
Settings: with wwtr1_human WWTR1, Q9GZV5

Row | Variant | effect of a mutation on the interaction
50 | D351H | with no effect

Variants of: B1
Settings: with xpo1_human XPO1, O14980

Row | Variant | effect of a mutation on the interaction
51 | D351H | with no effect

Variants of: B1
Settings: with 1433b_human YWHAB

Row | Variant | effect of a mutation on the interaction
52 | D351H | with no effect

Variants of: B1
Settings: with 1433e_human YWHAE

Row | Variant | effect of a mutation on the interaction
53 | D351H | with no effect

Variants of: B1
Settings: with 1433z_human YWHAZ

Row | Variant | effect of a mutation on the interaction
54 | D351H | with no effect

Variants of: B1
Settings: with arc1a_human ARPC1A

Row | Variant | effect of a mutation on the interaction
55 | D351H | causing an interaction

— IntAct's records for PubMed 35512704
